Results taken from paper PMC11479938.

Molecular target: SerRS (full-length human seryl-tRNA synthetase) (human) (UniProt P49591)
Sequence (P49591 whole entry): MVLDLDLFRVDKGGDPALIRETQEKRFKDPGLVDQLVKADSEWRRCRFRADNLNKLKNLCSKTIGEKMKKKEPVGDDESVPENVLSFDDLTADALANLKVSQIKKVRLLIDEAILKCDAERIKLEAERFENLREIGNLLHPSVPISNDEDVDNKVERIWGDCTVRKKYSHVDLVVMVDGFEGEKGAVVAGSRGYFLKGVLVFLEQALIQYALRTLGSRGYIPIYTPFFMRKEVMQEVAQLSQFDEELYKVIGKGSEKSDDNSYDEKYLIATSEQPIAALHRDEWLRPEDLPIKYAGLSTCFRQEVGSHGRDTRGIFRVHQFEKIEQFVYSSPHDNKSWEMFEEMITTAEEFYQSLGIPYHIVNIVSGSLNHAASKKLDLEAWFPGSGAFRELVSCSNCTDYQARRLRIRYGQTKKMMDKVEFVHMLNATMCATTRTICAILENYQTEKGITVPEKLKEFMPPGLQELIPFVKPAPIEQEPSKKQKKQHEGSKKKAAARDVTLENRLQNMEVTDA

in vitro methyltransferase activity of METTL6 on tRNA^SerUGA after adding SerRS (^3H-SAM incorporation): 1000 fold
Substance: METTL6 (full-length human m^3C tRNA methyltransferase) (from UniProt Q8TCB7 1-284) (enzyme)
